Source: US20230312753A1 (IMMUNORIZON, published 2023)

Assays:
[1] = molecular target: T1, NKG2A on NK92 cells (endogenous) (UniProt P26715 1-233, limits assumed); assay: FACS on NK92 cells (FIG. 45C)
T1 construct: whole, on cells
Protocol: (§1) Suspension cultured cells was harvested directly, and adherent cell were digested using TrypLE Express Enzyme (cat: 12604-013, supplier Life technologies). Centrifuge at 1000 rpm for 5 min and discard the supernatant. Cells are suspended at a concentration of 2×10⁶/mL in FACS buffer (2% FBS in PBS) and add 100 µL/well of cell suspension to the plate (cat #3799, supplier Corning). Centrifuging the plates at 2000 rpm for 5 min and discard the supernatant. Re-suspend the cells in 100 µL/well of Tribody set antibodies (400 nM start, 4-fold dilution, 8 point including 0 point) and incubate the plate for 60 min at 4° C. Centrifuge the plate at 2000 rpm, 4° C. for 5 min and discard supernatant. Then wash the cells 3 times with 170 µL FACS buffer. Re-suspend the cells at 100 µL/well with secondary antibody (goat anti-human Ig Fab-FITC, Cat # 2085-02, Southern biotech) with 1:400 dilution and incubate the plate for 30 min at 4° C. in dark. Centrifuge the plate at 2000 rpm, 4° C. for 5 min and discard supernatant. […] The fluorescence intensity of the staining was measured using flow cytometer (BD, FACSVerse). The geometric mean fluorescence intensity (GMFI; median fluorescence intensity (MFI)) of set antibodies staining was calculated (BD FACSuite software). Dose-response curves were generated and EC50s for thetrispecific variants binding were calculated using GraphPad Prism software.

[2] = molecular target: T2, h5T4-His (recombinant human 5T4) (human, UniProt Q13641 32-355, limits assumed); assay: ELISA on coated h5T4-His (FIG. 43B)
T2 construct: Bought protein; also called recombinant 5T4
T2 sequence (looked up): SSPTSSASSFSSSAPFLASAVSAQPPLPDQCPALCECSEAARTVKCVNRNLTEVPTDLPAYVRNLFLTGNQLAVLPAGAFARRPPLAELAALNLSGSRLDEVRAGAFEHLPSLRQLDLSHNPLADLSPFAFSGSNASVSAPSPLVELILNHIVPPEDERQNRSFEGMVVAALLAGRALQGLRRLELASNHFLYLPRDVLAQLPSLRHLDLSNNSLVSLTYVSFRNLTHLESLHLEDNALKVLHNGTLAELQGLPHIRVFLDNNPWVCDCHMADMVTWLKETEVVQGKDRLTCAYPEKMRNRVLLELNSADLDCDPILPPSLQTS
Protocol: (§2) Methods: ELISA binding of Tribody/ProTribody antibody constructs to antigens: Dilute target protein (hCD3epsilon-His (cat # 10977-H08S, supplier Sino Biological); h5T4-His (cat# 19845-H08H, supplier Sino Biological); NKG2A-CD94-ECD-hFc, Lot:20200724002, provided by CP; or NKG2D-ECD-hFc, Lot: 20200413002, provided by CP) into PBS with final concentration of 0.01 µg/mL for hCD3epsilon-His, 0.3 µg/mL for h5T4-His, 1 µg/mL for NKG2A-CD94-ECD-hFc and 0.7 µg/mL for hNKG2D-ECD-hFc respectively and coat 100 µL/well on ELISA plate (cat: 9018, supplier Corning) respectively. Incubate O/N, 4° C. The plates were blocked with 250 µL 1% BSA in PBST for 1 hr at 37° C.Wash 4 times with PBST. All the washes are done using Biotek (Elx 405). All the Tribody set antibodies were diluted to 400 nM and make 4-fold serially dilutions (12 points, including 0 point). Add 100 µL/well diluted antibody constructs solution to plate, incubate for 1 hr at 37° C.Wash 4 times with PBST. Add 100 µL/well anti-human kappa light chain-HRP (1:10000), incubate for 0.5 hr at 37° C. Wash 4 times with PBST. 100 µL/well of TMB substrate was added and incubated at room temperature for 5 min. 100 µL/well of 1N HCl to terminate reaction. Plates were read using ELISA plate reader at 450 nm wavelength (instrunet SpectraMax M5e). Data Analysis was performed using Graphpad prism 5 software by using nonlinear regression (curve fit): log (agonist) vs. response, agonist is antibody concentration (nM) and response is OD value.

[3] = molecular target: T3, hCD3epsilon-His (recombinant human CD3 epsilon) (human, UniProt P07766 23-126); assay: ELISA on coated hCD3epsilon-His (FIG. 43A)
T3 construct: Bought protein; also called recombinant hCD3ε protein; human CD3ε
T3 sequence (P07766 23-126 limits assumed): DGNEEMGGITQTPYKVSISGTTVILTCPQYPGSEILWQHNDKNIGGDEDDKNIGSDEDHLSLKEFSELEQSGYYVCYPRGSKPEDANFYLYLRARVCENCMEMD
Protocol: as §2, with “Data Analysis was performed using Graphpad prism 5 software by using nonlinear regression (curve fit): log (agonist) vs. response, agonist is antibody concentration (nM) and response is OD value.” left out

NKG2A-CD94-ECD-hFc = molecular target: T4, NKG2A-CD94-ECD-hFc (human, UniProt P26715 94-233; Q13241 32-179, limits assumed); assay: ELISA on coated NKG2A-CD94-ECD-hFc (FIG. 43C)
T4 construct: extracellular domain; Lot 20200724002, 'provided by CP'; the two-chain layout here is only the reading of the name; also called human NKG2A (recombinant); NKG2A antigen; not shown: human Fc (hFc)
T4 sequence (P26715 94-233 limits assumed, chain 1 of 2): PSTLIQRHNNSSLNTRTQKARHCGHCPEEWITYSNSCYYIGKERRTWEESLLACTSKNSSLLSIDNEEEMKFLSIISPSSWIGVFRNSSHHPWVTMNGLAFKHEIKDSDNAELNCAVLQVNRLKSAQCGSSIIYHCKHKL
T4 sequence (Q13241 32-179 limits assumed, chain 2 of 2): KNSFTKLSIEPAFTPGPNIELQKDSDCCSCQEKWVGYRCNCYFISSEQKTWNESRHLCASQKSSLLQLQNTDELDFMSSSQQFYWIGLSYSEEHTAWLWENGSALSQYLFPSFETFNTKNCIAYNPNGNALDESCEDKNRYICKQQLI
Protocol: as §2

[4] = molecular target: T5, human CD3 epsilon on cells (Jurkat T cells, endogenous) (human, UniProt P07766 23-207); assay: FACS on Jurkat T cells, endogenous hCD3ε (FIG. 45A)
T5 construct: whole, on cells; On cells CD3 epsilon stands in the TCR/CD3 complex; only the epsilon chain is named as target; also called hCD3ε on Jurkat; CD3ε expressing cells
T5 sequence (P07766 23-207): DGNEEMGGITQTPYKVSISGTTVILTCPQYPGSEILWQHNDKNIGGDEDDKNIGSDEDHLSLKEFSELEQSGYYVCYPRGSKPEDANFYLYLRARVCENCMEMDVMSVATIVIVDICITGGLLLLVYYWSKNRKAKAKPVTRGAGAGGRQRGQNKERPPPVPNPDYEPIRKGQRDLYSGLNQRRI
Protocol: as §1, with “buffer.” for “buffer. Re-suspend the cells at 100 µL/well with secondary antibody (goat anti-human Ig Fab-FITC, Cat # 2085-02, Southern biotech) with 1:400 dilution and incubate the plate for 30 min at 4° C. in dark. Centrifuge the plate at 2000 rpm, 4° C. for 5 min and discard supernatant.”
Results: The expressed trispecific constructs were analyzed for their binding to cells expressing endogenous CD3ε, 5T4 and NKG2A/NKG2D.

[5] = molecular target: T6, NKG2A/CD94 on CHO cells (CHOK1-NKG2A-CD94) (human, UniProt P26715 1-233; Q13241 1-179, limits assumed); assay: FACS on CHO cells over-expressing NKG2A/CD94 (FIG. 45E)
T6 construct: whole, on cells; also called CHO cells over-expressing NKG2A/CD94; CHO cell line over expressing ectopic NKG2A
T6 sequence (P26715 whole entry, chain 1 of 2): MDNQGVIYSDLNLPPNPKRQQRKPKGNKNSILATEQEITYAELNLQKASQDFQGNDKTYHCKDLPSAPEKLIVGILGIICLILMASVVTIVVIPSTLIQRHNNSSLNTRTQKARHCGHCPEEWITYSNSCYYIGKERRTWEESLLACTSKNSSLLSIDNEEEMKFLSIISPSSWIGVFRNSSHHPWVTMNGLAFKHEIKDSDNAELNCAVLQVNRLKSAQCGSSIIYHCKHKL
T6 sequence (Q13241 whole entry, chain 2 of 2): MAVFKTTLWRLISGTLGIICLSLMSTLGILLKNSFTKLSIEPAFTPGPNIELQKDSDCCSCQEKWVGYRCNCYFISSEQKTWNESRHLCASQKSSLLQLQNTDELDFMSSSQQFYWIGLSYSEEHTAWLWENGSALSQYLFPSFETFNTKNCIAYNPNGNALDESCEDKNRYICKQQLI
Protocol: (§3) Then wash the cells 3 times with 170 µL FACS buffer. Re-suspend the cells at 100 µL/well with secondary antibody (goat anti-human Ig Fab-FITC, Cat # 2085-02, Southern biotech) with 1:400 dilution and incubate the plate for 30 min at 4° C. in dark. Centrifuge the plate at 2000 rpm, 4° C. for 5 min and discard supernatant. Then wash the cells 3 times with FACS buffer and analyze the sample with FACS verse. The fluorescence intensity of the staining was measured using flow cytometer (BD, FACSVerse). The geometric mean fluorescence intensity (GMFI; median fluorescence intensity (MFI)) of set antibodies staining was calculated (BD FACSuite software). Dose-response curves were generated and EC50s for thetrispecific variants binding were calculated using GraphPad Prism software.
(§4) Results: The expressed trispecific constructs were analyzed for their binding to cells expressing endogenous CD3ε, 5T4 and NKG2A/NKG2D. […] (FIG. 45F).

[6] = molecular target: T7, 5T4 on cells (NCI-H226 endogenous; CHO over-expressing 5T4) (UniProt Q13641 32-420, limits assumed); assay: FACS on CHO cells over-expressing ectopic 5T4 (FIG. 45D)
T7 construct: whole, on cells
T7 sequence (looked up): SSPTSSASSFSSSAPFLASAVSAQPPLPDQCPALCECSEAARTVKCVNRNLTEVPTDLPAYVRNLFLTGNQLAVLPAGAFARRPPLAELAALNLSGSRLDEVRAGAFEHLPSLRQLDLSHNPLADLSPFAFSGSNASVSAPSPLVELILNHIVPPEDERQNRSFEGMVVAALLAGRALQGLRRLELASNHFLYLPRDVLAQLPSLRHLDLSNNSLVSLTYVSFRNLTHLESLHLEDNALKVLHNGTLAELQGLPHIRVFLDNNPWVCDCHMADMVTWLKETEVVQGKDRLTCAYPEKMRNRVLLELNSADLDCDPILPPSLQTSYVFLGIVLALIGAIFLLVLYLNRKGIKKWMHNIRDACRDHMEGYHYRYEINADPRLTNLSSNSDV
Protocol: as §3, §4

T1 sequence (P26715 whole entry): as the sequence (P26715 whole entry, chain 1 of 2) above

B1: IM-1093 Tribody, NKG2A mutant variant (other)
heavy: GGSGGSEVQLVESGGGLVQPGGSLRLSCAASGFTFNTYAMNWVRQAPGKGLEWVARIRSKYNNYATYYADSVKDRFTISRDDSKNTLYLQMNSLRAEDTAVYYCVRHGNFGNSYVSWFAYWGQGTMVTVSSASTKGPSVFPLAPSSKSTSGGTAALGCLVKDYFPEPVTVSWNSGALTSGVHTFPAVLQSSGLYSLSSVVTVPSSSLGTQTYICNVNHKPSNTKVDKRVEPKSCPPCGGGGSDIQMTQSPSSLSASVGDRVTITCRASENIYSALAWYQQKPGKAPKLLIYNAKTLAEGVPSRFSGSGSGTDFTLTISSLQPEDFATYYCQHHAGTPRTFGGGTKVEIKGGGGSGGGGSGGGGSGGGGSQVQLVQSGAEVKKPGASVKVSCKASGYTFTSYWMNWVRQAPGQGLEWMGRIDPYDSETHYAQKLQGRVTMTTDTSTSTAYMELRSLRSDDTAVYYCARGGYDFDVDTLYWFFDVWGQGTTVTVSS
light: GGSGGSQAVVTQEPSLTVSPGGTVTLTCRSSTGAVTTSNYANWVQQKPGQAPRGLIGGTNKRAPGTPARFSGSLLGGKAALTLSGVQPEDEAEYYCALWYSNLWVFGGGTKLTVLGQPKAAPSVTLFPPSSEELQANKATLVCLISDFYPGAVTVAWKADSSPVKAGVETTTPSKQSNNKYAASSYLSLTPEQWKSHRSYSCQVTHEGSTVEKTVAPTECPPCSGGGSDIQMTQSPSSLSASVGDRVTITCRASQGISNYLAWFQQKPGKAPKSLIYRANRLQSGVPSRFSGSGSGTDFTLTISSLQPEDVATYYCLQYDDFPWTFGQGTKLEIKGGGGSGGGGSGGGGSGGGGSQVQLVQSGAEVKKPGASVKVSCKASGYTFTSFWMHWVRQAPGQGLEWMGRIDPNRGGTEYNEKAKSRVTMTADKSTSTAYMELSSLRSEDTAVYYCAGGNPYYPMDYWGQGTTVTVSS
notes: also called NKG2A mutated Tribody
B1 was tested, and the binding result [1] was “no binding (tested: dilution series from 400 nM)”, the EC50 [2] was 12 nM and the EC50 [3] was 1.84 nM. The binding result (NKG2A-CD94-ECD-hFc) was “no binding (tested: dilution series from 400 nM)”, the EC50 [4] was 1.3 nM and the binding result [5] was “no binding (tested: dilution series from 400 nM)”. The EC50 [6] was 1.3 nM.
